Experimental data taken from the supplement of paper PMC9170038.

Tested on: MS2 coat protein
Assay: apparent KD of MS2 coat protein; designed switch direction (-1 OFF switch, 1 ON switch): -1; higher = weaker reporter binding
Method in brief: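 The apparent KD reported per design is the median over clusters of curve fits to normalised cluster fluorescence. The RNA switches were transcribed on Illumina chips by stalled E. coli RNA polymerase. SNAP-549-labelled MS2 coat protein was titrated from 0.7 or 1.5 nM, doubling up to 3 µM, in Tris-HCl pH 7.5 buffer containing KCl, MgCl2, BSA, DTT, tRNA and Tween-20, with no input, 200 uM small-molecule ligand, or an oligonucleotide input.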

[1] = input ligand: microRNA oligo, concentration not stated
[2] = Eterna round: R95, input ligand: microRNA oligo, concentration not stated
[3] = Eterna round: R95, input ligand: FMN 200 uM
[4] = Eterna round: R95, input ligand: none

Row | Sequence | apparent KD of MS2 coat protein (input ligand: FMN 200 uM) [µM] | apparent KD of MS2 coat protein (input ligand: none) [µM] | apparent KD of MS2 coat protein [1] [µM] | apparent KD of MS2 coat protein [2] [µM] | apparent KD of MS2 coat protein [3] [µM] | apparent KD of MS2 coat protein [4] [µM]
1 | ACAAGCUUGUAAUGAUUGAACAUGAGGAUCACCCAUGUAAAUGGAAGAACCAACUUGAUAUGAUUUACUCGUCUUAU [JR_STOV1_Sub011] (Eterna round: R97, puzzle: Sensor, turn-off variant 1) | 0.676 | 0.546 | – | – | – | –
2 | GUAAACGCAGAGGAUAUUUCAGAUCAAAGCUGCAAAGAAGGCUGCACAUGAGGAUCACCCAUGUGGUCUUCAAG [Mat - Exclusion 6 - JL Mod - D10] (Eterna round: R97, puzzle: Exclusion 6) | 0.297 | 0.0247 | – | – | – | –
3 | UACAUGAGGAUCACCCAUGUACCUUAUGUAAGAGUGGGAAGUAAGGAUAUAUAUGAAGGAAUGAAAUAGAAGGUGCAUAGAGAG [Default title] (Eterna round: R96, puzzle: Exclusion NG 3) | 0.121 | 0.0933 | 0.0974 | – | – | –
4 | CCCGUGUUAGGAUAUACGGCACACCUGCCAGCAGGUGUAUAGUAGAAGGAACAUGAGGAUCACCCAUGUAUAGC [Rizausma] (puzzle: Exclusion 4) | – | – | – | 0.0346 | – | –
5 | UUAAUUAGCAGGCAAGAUCAUUACAUGAGGAUCACCCAUGUCGAGGAUAUCAGCUCGAUUAGAGCUGAGAAGGCGACAGCCUGC [ExNG3/13-A1] (Eterna round: R96, puzzle: Exclusion NG 3) | 1.54 | 0.382 | 0.443 | – | – | –
6 | ACAUGAGGAUCACCCAUGUAAUCAUGAUGGCUGAUGUAGAGUCAGGAUAUGUGUGGCUUUCUAUCGCAGAAGGGACAAGACUGG [Deportation 35 - Jieux - Exclusion NG 3] (Eterna round: R96, puzzle: Exclusion NG 3) | 0.0456 | 0.0434 | 0.0377 | – | – | –
7 | UUUUCGUAAGGAUAUGGUUAGAUCUACGAAAGUAGAUCUAACCAGAAGGUACAUGAGGAUCACCCAUGUUGGUA [Mod of Brourd 22 - Jieux - Exclusion 4] (Eterna round: R97, puzzle: Exclusion 4) | 0.0798 | 0.0299 | – | – | – | –
8 | CCAGUACGAGGAUAUACAUGAGGAUCACCCAUGUAAAUUGCCACGUCUUGGACGUCAUGUAGAAGGCGUUGGAA [EX3 C.1] (Eterna round: R97, puzzle: Exclusion 3) | 0.0152 | 0.0143 | – | – | – | –
9 | UAAGUUUACCGAGGAUAUGGUCAAUAAUUAUGACCAGAAGGCGGACUCAACAUGAGGAUCACCCAUGUAUAAAGGGUAAUUGGU [JR_ExcNG1_Sub047] (Eterna round: R96, puzzle: Exclusion NG 1) | 0.154 | 0.0908 | 0.11 | – | – | –
10 | CGGCAUGUAGAAGGAUAUCUGCACGAUUAGUGCAGAGAAGGUCUAACAUGAGGAUCACCCAUGUAGAUCAUUAACCGAUUAAUU [ENG1/8-A1] (Eterna round: R96, puzzle: Exclusion NG 1) | 0.0219 | 0.012 | 0.0107 | – | – | –
11 | UAUUAACAAGCAAGAUCCCACAUGAGGAUCACCCAUGUGCUCGUCUUGUAAGGUACUGUGACGAAAGUCACGGUACC [Sensor 3, v1 - 84] (puzzle: Sensor v3, turn-off variant 1) | – | – | – | 0.041 | 0.0139 | 0.0134
12 | AGGUGUAGAGGAUAUCGAAUCCUUUACAUGAGGAUCACCCAUGUCCUGGGCACCCAGGACCGAGAAGGCUACACCA [Omei Ex5 D33] (Eterna round: R97, puzzle: Exclusion 5) | 0.0402 | 2.35 | – | – | – | –
13 | CUUUUGUGAGGAUAUCAGUAGUAAAUAAAUAAAAUUAAUACUGAGAAGGCACAUGAGGAUCACCCAUGUUCCUC [Mat - Exclusion 4 - Mod of Salish - D63] (puzzle: Exclusion 4) | – | – | – | 0.033 | – | –
14 | CUCGUGUGAGGAUAUCGAUUAUGGAAGUCUAGAUCCAUACGCGAGAAGGCACAUGAGGAUCACCCAUGUAAUGG [jl-ex4-4.35 ViennaUCT mod] (Eterna round: R97, puzzle: Exclusion 4) | 0.0683 | 0.176 | – | – | – | –
15 | AAGGGUGCUUUCAGAACGACAUGAGGAUCACCCAUGUAGACUGAGGAUAUCUACUUCUAAGGACGGGAGAAGGCAGUGUAAUGU [Ex NG3 #71] (Eterna round: R96, puzzle: Exclusion NG 3) | 0.0255 | 0.0226 | 0.0178 | – | – | –
16 | CCAGACGCUGUGAGGAUAUGAAAAGGUGCUGCUUUUUAGAAGGCACAUGAGGAUCACCCAUGUGGUACCUCGGG [Eternabot (L1) Solution 20] (Eterna round: R97, puzzle: Brourd's mod of Exclusion 4) | 0.397 | 0.514 | – | – | – | –
17 | AAACAGCAAGGAUAUACGGGCUGUGCUUUUCAUAUCAUACAACAUGAGGAUCACCCAUGUAGAAGGUGCAACAA [Ex2 #3] (Eterna round: R97, puzzle: Exclusion 2) | 0.146 | 0.044 | – | – | – | –

Row | Sequence | apparent KD of MS2 coat protein (input ligand: FMN 200 uM) [µM] | apparent KD of MS2 coat protein (input ligand: none) [µM] | apparent KD of MS2 coat protein [1] [µM] | apparent KD of MS2 coat protein [2] [µM] | apparent KD of MS2 coat protein [3] [µM] | apparent KD of MS2 coat protein [4] [µM]
18 | ACGUGGGCCCUUAGUGAACAUGAGGAUCACCCAUGUAACCACAAGGAUAUCUACGCCAGCACGCGAGAGAAGGUGUGAAAUAAU [Maorbetiza] (Eterna round: R96, puzzle: Exclusion NG 3) | 0.132 | 0.0448 | 0.0354 | – | – | –
19 | CAGUACUGAGGAUAUACAUGAGGAUCACCCAUGUGCCUUAGCUAGGAUACUAGCAUUAGUAGAAGGCAGUACUG [Fiskers Ex 3 828 mod 14] (puzzle: Exclusion 3) | – | – | – | 0.0142 | – | –
20 | CCCUCAAGCGAGGAUAUAAAUGCGCAUUCGCGGUUAGAAGGCGCUACAUGAGGAUCACCCAUGUAAUUAAAUGG [jl-ex6-4.51 ViennaUCT mod] (Eterna round: R97, puzzle: Exclusion 6) | 0.128 | 0.0526 | – | – | – | –
21 | AAACAAGCAACGAGAUCCCACAUGAGGAUCACCCAUGUCAACUGAAGUUUUAAAUCUUCAGGCUCGUCUUAUAACAA [S_tov1_V1.1] (Eterna round: R97, puzzle: Sensor, turn-off variant 1) | 0.0336 | 0.0348 | – | – | – | –
22 | AAUAAUGAGAAGGAUAUCACUAGCGAUAGCUAGUGAGAAGGUCUCACAUGAGGAUCACCCAUGUGUUCCAAUAA [Mod1 Ex6/6-A4 by Brourd] (Eterna round: R97, puzzle: Exclusion 6) | 0.417 | 0.221 | – | – | – | –
23 | UGGACAUGAGGAUCACCCAUGUAAUACACACCUCAGCCACGAGAGGAUAUGCCCGGAGGACCGGCGCAGAAGGCUCCCAAGAGA [Eternabot solution 10] (Eterna round: R96, puzzle: Exclusion NG 3) | 0.0838 | 0.0481 | 0.0295 | – | – | –
24 | AGUAACAGAGGAUAUACUGUUUUAUGUGUUUGUUAUUUUAAACAUGAGGAUCACCCAUGUAGAAGGCUGAAUAA [JMF 83] (puzzle: Exclusion 2) | – | – | – | 0.0214 | – | –
25 | CAGUACUGAGGAUAUACAUGAGGAUCACCCAUGUGAGAAAUACUAAUGAGGUCGAUUAGUAGAAGGCAGUACUG [Mat - Exclusion 3 - Eli Mod - D32] (Eterna round: R97, puzzle: Exclusion 3) | 0.255 | 0.0197 | – | – | – | –
26 | UAUUAGCAAGCUAGAUCCCACAUGAGGAUCACCCAUGUGCUCGUCUUAUAAGGUACUGUGACGAAAGUCACGGUACC [Sensor 3, v1 - 96] (puzzle: Sensor v3, turn-off variant 1) | – | – | – | 0.798 | 0.0568 | 0.0575
27 | CAAAAGGGAGGAUAUACUUGAGGAUCACCCAAGUAAUCGGGUCAAAGAUACCAAGCAGGUAGAAGGCCCAAAUA [Teedleveer] (Eterna round: R97, puzzle: Exclusion 3) | 0.0915 | 0.0847 | – | – | – | –
28 | UUUAAUUUUUUUUUUUUACAAGCUUUUUGCUCGUCUUAUACAUGAGGAUCACCCAUGUGGGUAGAGGGUAAAUUAUC [JMF 82] (puzzle: Sensor v3, turn-off variant 2) | – | – | – | 0.0389 | 0.0151 | 0.0149
29 | AGUCCUGAAGUUAGGAUAUGAAGUAUCACUGCACUUCAGAAGGGACUUGAGGAUCACCCAAGUAGCCGUGAGGG [salish99_bmod_ex4_r4_002] (Eterna round: R97, puzzle: Brourd's mod of Exclusion 4) | 0.128 | 0.0706 | – | – | – | –
30 | CGUGCGUAUGUGAGGAUAUGCUGGUCCUUGGAUCGGCAGAAGGCACAUGAGGAUCACCCAUGUGGUGUCGUGCA [salish99_Bmod_ex4_090] (puzzle: Brourd's mod of Exclusion 4) | – | – | – | 0.19 | – | –
31 | CCGCGUACAGGAUAUCCAUCUGGAUCAGACAAGAUCCUGAUGGAGAAGGGACAUGAGGAUCACCCAUGUUGCGG [Mat - Exclusion 4 - Eli Mod - D54] (Eterna round: R97, puzzle: Exclusion 4) | 0.019 | 0.0193 | – | – | – | –
32 | AGUAGUUACGUAGGAUAUGAGGAUCACCCAUAGAAGGAUAUCGAAAGAGAAGGUCUGAGGAUUACCCAGAAGGACGUGACUACA [pwkr exNG2 2xF5 2xFMN.9] (Eterna round: R96, puzzle: Exclusion NG 2) | 0.334 | 0.138 | 0.113 | – | – | –
33 | UCCUCACAUGAGGAUCACCCAUGUCAGGAUAUCCAGUUGGGCCUCUGUAGAGGCGCCAGGAGAAGGGAUAAGGA [Ceenerso] (Eterna round: R97, puzzle: Exclusion 1) | 0.0359 | 0.0223 | – | – | – | –
